Data set [1] concerns the molecule itself. The data set is described as follows: FTIR spectroscopy; 10 mM peptide in D2O, pH 7, NaCl 0, 50, 100, 200, 300 and 400 mM; beta-sheet formation read as self-assembly.
Data set [2] deals with the molecule itself. The data set is described as follows: transmission electron microscopy; 1 mM peptide in deionized water, pH 11 (NH4OH), negative staining with uranyl acetate, dried on the grid.
Data set [3] deals with the molecule itself. The data set is described as follows: zeta potential; 1 mM peptide in ultrapure water, neutral pH; self-association of the peptide.

B1: (KI)6K peptide (peptide)
peptide: Ac-KIKIKIKIKIKIK-NH2
notes: rationally designed cationic amphipathic peptide; Synthesised on a rink amide MBHA resin, so the C-terminus is probably an amide (surmised); source: synthetic peptide (Fmoc solid-phase synthesis, purified by preparative RP-HPLC)
Take B1: the binding result in data set [1] is listed as “binds”.

B2: (KI)3K peptide (peptide)
peptide: Ac-KIKIKIK-NH2
notes: as for B1
Regarding B2, the binding result in data set [2] is recorded as “binds”.

B3: (KI)5K peptide (peptide)
peptide: Ac-KIKIKIKIKIK-NH2
notes: as for B1
Regarding B3, the binding result in data set [3] is given as “binds”.

B4: (KI)2K peptide (peptide)
peptide: Ac-KIKIK-NH2
notes: as for B1
Take B4: the binding result in data set [2] is listed as “binds”.

B5: (KI)4K peptide (peptide)
peptide: Ac-KIKIKIKIK-NH2
notes: as for B1
On to B5, for which the binding result in data set [2] is reported as “binds”.

The values above are taken from article PMC10024175, “Structuring supramolecular hyaluronan hydrogels via peptide self-assembly for modulating the cell microenvironment” (Materials Today Bio, 2023).
